Measurements: article PMC12211734, “In silico and in vitro characterisation and affinity maturation of human red blood cell binding aptamers†”

Legend:
[1] = target: GLUT1 (glucose transporter band 4.5) (Homo sapiens) (UniProt P11166); assay: ELONA; conditions: ELONA: protein coated at 10 nM in carbonate/bicarbonate pH 9.6; aptamer (1.5625 nM-5 uM, 95 C 5 min then snap-cooled) in 1x DPBS, 0.55 mM MgCl2, 0.05% …
[2] = target: T1, Glycophorin A (Homo sapiens, UniProt P02724 20-91); assay: ELONA; one-site fit, R2 0.857; ELONA: protein coated at 10 nM in carbonate/bicarbonate pH 9.6; aptamer (1.5625 nM-5 uM, 95 C 5 min then snap-cooled) in 1x DPBS, 0.55 mM MgCl2, 0.05% Tween-20, 1% BSA, 1 h, room temperature; SA-HRP/TMB read-out at 450 nm; conditions: protein: recombinant; label: 5' biotin; hairpin, 3 loops predicted by Mfold; CD indicates parallel G4
[3] = target: T1, Glycophorin A; assay: ELONA; one-site fit, R2 0.716; text says low micromolar; ELONA: protein coated at 10 nM in carbonate/bicarbonate pH 9.6; aptamer (1.5625 nM-5 uM, 95 C 5 min then snap-cooled) in 1x DPBS, 0.55 mM MgCl2, 0.05% Tween-20, 1% BSA, 1 h, room temperature; SA-HRP/TMB read-out at 450 nm; conditions: protein: recombinant; label: 5' biotin; hairpin, 2 loops predicted by Mfold; CD indicates parallel G4
[4] = target: T1, Glycophorin A; assay: ELONA; one-site fit, R2 0.948; text says low micromolar; ELONA: protein coated at 10 nM in carbonate/bicarbonate pH 9.6; aptamer (1.5625 nM-5 uM, 95 C 5 min then snap-cooled) in 1x DPBS, 0.55 mM MgCl2, 0.05% Tween-20, 1% BSA, 1 h, room temperature; SA-HRP/TMB read-out at 450 nm; conditions: protein: recombinant; label: 5' biotin; hairpin, 2 loops predicted by Mfold; CD B-DNA-like

GLUT1 (glucose transporter band 4.5) (Homo sapiens), sequence (P11166 whole entry): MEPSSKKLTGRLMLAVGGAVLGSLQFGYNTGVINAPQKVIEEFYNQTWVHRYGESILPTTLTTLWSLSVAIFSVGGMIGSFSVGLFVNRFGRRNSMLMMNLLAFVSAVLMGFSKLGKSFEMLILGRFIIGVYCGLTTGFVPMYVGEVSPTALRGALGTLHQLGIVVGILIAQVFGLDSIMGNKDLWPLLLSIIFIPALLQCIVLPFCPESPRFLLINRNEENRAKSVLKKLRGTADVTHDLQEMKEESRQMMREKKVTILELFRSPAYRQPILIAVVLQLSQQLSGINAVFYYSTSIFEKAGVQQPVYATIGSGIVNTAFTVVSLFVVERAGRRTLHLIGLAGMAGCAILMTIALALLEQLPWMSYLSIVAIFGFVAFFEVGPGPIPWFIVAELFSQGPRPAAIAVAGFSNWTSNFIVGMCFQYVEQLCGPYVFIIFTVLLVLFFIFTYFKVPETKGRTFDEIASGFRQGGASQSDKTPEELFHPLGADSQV

Row | Molecule | Kd [1] | also measured
1 | ATCCAGAGTGACGCAGCATGCGGGGAGAGGAGTGTGGGATGGGTTTGTTTGTTTAGGGTGGACACGGTGGCTTAGT [N4 aptamer (76 nt)] | 0.0376 µM | 
2 | CTCCTCTGACTGTAACCACGTCGCGGGTAGGGGGAGGGCCGAGGAGGCTGTAGGTGGGTGGCATAGGTAGTCCAGAAGCC [BB1 aptamer (80 nt)] | 0.0416 µM | 
3 | ATCCAGAGTGACGCAGCACGGGTTGGGGCTGGTTGTGTGTTGTTTTTTTGGCTGTATGTGGACACGGTGGCTTAGT [N1 aptamer (76 nt)] | 0.0595 µM | 
4 | BB1 aptamer (80 nt) (structured_DNA) DNA: CTCCTCTGACTGTAACCACGTCGCGGGTAGGGGGAGGGCCGAGGAGGCTGTAGGTGGGTGGCATAGGTAGTCCAGAAGCC |  | Kd [2]: 0.025 ± 0.0103 µM
5 | N4 aptamer (76 nt) (structured_DNA) DNA: ATCCAGAGTGACGCAGCATGCGGGGAGAGGAGTGTGGGATGGGTTTGTTTGTTTAGGGTGGACACGGTGGCTTAGT |  | Kd [3]: 0.354 ± 0.227 µM
6 | N1 aptamer (76 nt) (ssDNA) DNA: ATCCAGAGTGACGCAGCACGGGTTGGGGCTGGTTGTGTGTTGTTTTTTTGGCTGTATGTGGACACGGTGGCTTAGT |  | Kd [4]: 0.356 ± 0.0956 µM
